{
  "source": "paper PMC12961186",
  "about": "“JUNO-coated beads as a functional assay to capture and characterize fertilization-competent human sperm” (Human Reproduction Open, 2026)",
  "binders": {"B1": {"name": "Human JUNO ectodomain (residues 20-228), biotinylated (domain or fragment, UniProt A6ND01 20-228, looked up)", "chain": "GDELLNICMNAKHHKRVPSPEDKLYEECIPWKDNACCTLTTSWEAHLDVSPLYNFSLFHCGLLMPGCRKHFIQAICFYECSPNLGPWIQPVGSLGWEVAPSGQGERVVNVPLCQEDCEEWWEDCRMSYTCKSNWRGGWDWSQGKNRCPKGAQCLPFSHYFPTPADLCEKTWSNSFKASPERRNSGRCLQKWFEPAQGNPNVAVARLFAS", "modifications": "biotin (EZ-link Sulfo-NHS-LC-Biotin, 1:1 molar ratio); glycosylated", "notes": "JUNO, human, UniProt A6ND01, residues 20-228 (ectodomain); The construct has an N-terminal BiP signal peptide for secretion and a thrombin cleavage site before the C-terminal 10xHis tag; also called recombinant JUNO; rhJUNO; source: Drosophila S2 cells, stably transfected, secreted; purified (Ni-NTA, SEC)"}},
  "target": "T1, Recombinant human IZUMO1 ectodomain (residues 22-254) (human, UniProt Q8IYV9 22-254)",
  "T1 construct": "IZUMO1, human, UniProt Q8IYV9, residues 22-254 (ectodomain); The construct has an N-terminal BiP signal peptide for secretion and a thrombin cleavage site before the C-terminal 10xHis tag; In the bead assay the tag was probably cleaved, since the beads capture His tags (surmise); also called rIZUMO1; IZUMO1 (residues 22-254); source: Drosophila S2 cells, stably transfected, secreted; purified …",
  "T1 sequence (Q8IYV9 22-254)": "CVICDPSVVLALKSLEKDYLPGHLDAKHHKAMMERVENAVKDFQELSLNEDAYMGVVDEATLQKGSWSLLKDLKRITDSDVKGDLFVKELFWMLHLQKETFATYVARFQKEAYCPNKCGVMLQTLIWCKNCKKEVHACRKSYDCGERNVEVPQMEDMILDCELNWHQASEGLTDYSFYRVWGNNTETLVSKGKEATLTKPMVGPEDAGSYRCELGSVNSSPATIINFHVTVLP",
  "test": "SPR; Nicoya Alto digital SPR, single-cycle kinetics, 25 °C; biotinylated JUNO (800 nM) immobilised as bait on streptavidin-coated carboxyl PEG cartridge; IZUMO1 as analyte at 1000, 333, 111, 37 and 12.3 nM; PBS pH 7.4, 0.05% Tween-20; technical triplicate",
  "details": "both partners purified",
  "data": [
    {"binder": "B1", "values": [
      {"measurement": "Kd", "result": 37.6, "unit": "nM"},
      {"measurement": "koff", "result": 0.00387, "unit": "s⁻¹"},
      {"measurement": "kon", "result": 103000, "unit": "M⁻¹ s⁻¹"}
    ]}
  ]
}
